B1: Death-associated protein kinase 3 (Mus musculus), O54784 (parent)
chain: MSTFRQEDVEDHYEMGEELGSGQFAIVRKCQQKGTGMEYAAKFIKKRRLPSSRRGVSREEIEREVSILREIRHPNIITLHDVFENKTDVVLILELVSGGELFDFLAEKESLTEDEATQFLKQILDGVHYLHSKRIAHFDLKPENIMLLDKHAASPRIKLIDFGIAHRIEAGSEFKNIFGTPEFVAPEIVNYEPLGLEADMWSIGVITYILLSGASPFLGETKQETLTNISAVNYDFDEEYFSSTSELAKDFIRRLLVKDPKRRMTIAQSLEHSWIKVRRREDGARKPERRRLRAARLREYSLKSHSSMPRNTSYASFERFSRVLEDVAAAEQGLRELQRGRRQCRERVCALRAAAEQREARCRDGSAGLGRDLRRLRTELGRTEALRTRAQEEARAALLGAGGLKRRLCRLENRYDALAAQVAAEVQFVRDLVRALEQERLQAECGVR
partner: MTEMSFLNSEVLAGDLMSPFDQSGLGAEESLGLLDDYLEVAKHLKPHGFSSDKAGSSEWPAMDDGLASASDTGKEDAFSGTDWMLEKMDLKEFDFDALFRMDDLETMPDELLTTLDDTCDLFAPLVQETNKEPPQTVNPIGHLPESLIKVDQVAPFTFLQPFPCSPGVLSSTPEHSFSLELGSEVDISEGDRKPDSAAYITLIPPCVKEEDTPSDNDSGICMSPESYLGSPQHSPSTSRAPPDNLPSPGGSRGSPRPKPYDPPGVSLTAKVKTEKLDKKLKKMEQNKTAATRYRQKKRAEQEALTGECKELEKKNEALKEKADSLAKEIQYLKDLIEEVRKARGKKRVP

Variants of: B1
Settings: with atf4_mouse Atf4, Q06507

Row | Variant | effect of a mutation on the interaction
1 | V422A;V429A;L436A | disrupting interaction

Source: IntAct's records for PubMed 9488481
